The values that follow come from paper doi:10.1101/2020.09.10.291369, “In vivo and in vitro mechanistic characterization of a clinically relevant PolγA mutation”.

In the series the target is T1, POLγA WT (UniProt P54099 26-1218).
T1 sequence: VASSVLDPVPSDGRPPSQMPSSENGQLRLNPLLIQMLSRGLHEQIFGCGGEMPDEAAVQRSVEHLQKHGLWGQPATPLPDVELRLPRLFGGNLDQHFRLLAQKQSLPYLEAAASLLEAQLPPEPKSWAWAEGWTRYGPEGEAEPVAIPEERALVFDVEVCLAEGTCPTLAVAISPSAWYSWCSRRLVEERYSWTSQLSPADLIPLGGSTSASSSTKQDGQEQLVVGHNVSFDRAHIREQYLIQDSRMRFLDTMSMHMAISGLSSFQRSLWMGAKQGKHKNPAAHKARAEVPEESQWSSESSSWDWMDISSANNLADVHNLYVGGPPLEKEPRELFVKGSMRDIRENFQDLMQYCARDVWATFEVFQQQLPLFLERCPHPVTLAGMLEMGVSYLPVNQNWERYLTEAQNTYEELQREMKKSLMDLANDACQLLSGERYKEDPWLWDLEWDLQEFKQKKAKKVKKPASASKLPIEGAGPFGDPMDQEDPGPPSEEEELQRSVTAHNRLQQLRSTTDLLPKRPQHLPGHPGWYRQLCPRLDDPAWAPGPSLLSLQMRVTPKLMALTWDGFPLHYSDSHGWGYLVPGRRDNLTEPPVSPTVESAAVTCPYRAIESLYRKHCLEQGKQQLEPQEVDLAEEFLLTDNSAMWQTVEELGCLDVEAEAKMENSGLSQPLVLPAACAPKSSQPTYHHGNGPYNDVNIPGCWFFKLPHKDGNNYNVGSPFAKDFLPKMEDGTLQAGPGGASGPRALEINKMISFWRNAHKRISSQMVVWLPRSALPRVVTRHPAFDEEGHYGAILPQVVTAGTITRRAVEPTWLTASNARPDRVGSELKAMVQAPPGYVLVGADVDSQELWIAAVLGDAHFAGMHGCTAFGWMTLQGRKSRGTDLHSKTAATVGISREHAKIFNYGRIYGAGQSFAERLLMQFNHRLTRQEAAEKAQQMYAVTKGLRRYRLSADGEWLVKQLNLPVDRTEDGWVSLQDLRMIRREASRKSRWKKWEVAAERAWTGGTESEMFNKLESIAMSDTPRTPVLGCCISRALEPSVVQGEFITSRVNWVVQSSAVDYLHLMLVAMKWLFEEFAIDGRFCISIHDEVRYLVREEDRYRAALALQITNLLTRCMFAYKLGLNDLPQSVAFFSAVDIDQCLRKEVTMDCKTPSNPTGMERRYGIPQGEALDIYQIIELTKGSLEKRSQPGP
The series can be described thus: EMSA; POLγA alone; 10 mM MgCl2, ddGTP, dCTP, ATP; Kd in Suppl. Fig. 5A, value not in material; EMSA: 10 fmol DNA in 15 µl, 20 mM Tris-HCl pH 7.8, 1 mM DTT, 0.1 mg/ml BSA, 10 mM MgCl2, 10% glycerol, 2 mM ATP, 0.3 mM ddGTP, 3 mM dCTP, RT 10 min; 6% native PAGE 0.5x TBE. The settings on record: protein: recombinant; label: 5'-32P on strand 2 (21-mer); 5' overhang 15 nt on strand 1; 21 bp duplex; primer-template. Background: In EMSA bound probe runs differently from free probe, usually more slowly.

B1: 36-nt/21-nt primed template (mixed)
DNA 1: TTTTTTTTTTATCCGGGCTCCTCTAGACTCGACCGC
DNA 2: GCGGTCGAGTCTAGAGGAGCC
For the molecule B1, the binding result is “binds”.
